Where two headings read alike, the source gives them in different places.
B1: PfCSS (residues 20 to 290) (domain or fragment)
chain: GQDEKSVKNICVCDFTDKLNFLPLEKTKILCELKPQYGEDIKIIANKEYEINCMNNSKVFCPLKDTFINNTNIKLYSPKLHFEIKDITHKGKNAALYYLKIDEEASDIFFSCSIKPKQVSGLLEGEVRVNLKKHINEEYSIFNEEEDVHVCDFSKGNLDITPSAGFYLKNSRNVSCIYRVIPNKLFLIKLPKLDIVTEKLLPSIVNCLSEFSFINFTLKHVQEGDNYISFNVIFGEFKKHFNLACSLDLSDFQQEPCNLGKTANITFIFSK
modifications: N-linked glycan on Asn88 (seen in the crystal structure)

How the values were obtained:
Assay in all cases: BLI
[1] = biological target: T1, PfPTRAMP (residues 42 to 309), PMX cleaved ectodomain (P. falciparum, UniProt Q8I5M8)
[2] = biological target: T1, PfPTRAMP (residues 42 to 309), PMX …; remark: listed apart in the source
[3] = biological target: T2, PTRAMP–CSS heterodimer (disulfide-linked PfPTRAMP 42–309 and PfCSS 20–290) (P. falciparum)
T2 chain 1: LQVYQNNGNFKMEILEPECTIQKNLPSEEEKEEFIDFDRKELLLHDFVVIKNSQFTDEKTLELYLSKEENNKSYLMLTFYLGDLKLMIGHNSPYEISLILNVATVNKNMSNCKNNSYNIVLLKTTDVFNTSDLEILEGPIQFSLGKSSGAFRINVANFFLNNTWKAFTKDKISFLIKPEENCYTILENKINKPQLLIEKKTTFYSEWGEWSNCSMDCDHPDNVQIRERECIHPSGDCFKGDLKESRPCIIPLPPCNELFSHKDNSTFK
T2 chain 2: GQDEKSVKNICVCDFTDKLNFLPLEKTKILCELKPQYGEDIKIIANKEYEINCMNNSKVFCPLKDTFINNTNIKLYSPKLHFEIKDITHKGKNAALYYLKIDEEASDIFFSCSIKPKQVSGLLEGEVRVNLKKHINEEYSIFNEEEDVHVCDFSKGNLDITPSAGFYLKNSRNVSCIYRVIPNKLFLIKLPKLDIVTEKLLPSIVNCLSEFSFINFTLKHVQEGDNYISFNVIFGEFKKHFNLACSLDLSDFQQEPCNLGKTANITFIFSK

[4] = biological target: B1

| Binder | Kd [1] [nM] | Kd [2] [nM] | Kd [3] [nM] | Kd [4] [nM] |
| --- | --- | --- | --- | --- |
| B1 | 19000 | – | – | – |
| anti-PfPTRAMP nanobody H10 (VHH) VHH: QVQLQESGGGLVQPGGSLRLSCAASGFTFDNYWMYWVRQAPGKGLEWVSAINTVGSHTYYADSVKGRFTISRDNAKNTLYLQMNSLKSEDTAVYYCAKGPWGFGTSGWGEMDYWGKGTQVTVSS | – | 530 | 390 | – |
| H2 nanobody (anti-PfCSS, non-inhibitory) (VHH) VHH: QVQLQESGGGLVQPGGSLRLSCAASGSIFSTNAMGWYRQAPGKQREQVATITSGSSTNYADSVKGRFTISRDNAKNTVYLQMNSLKPEDTAVYYCNAAGATIDLADFGSWGQGTQVTVSS | – | – | – | 0.88 |
| anti-PfCSS nanobody F1 (VHH) VHH: QVQLQESGGGLVQAGGPLRLSCVASGRTFSLHLMGWFRQAPGKEREFVAAISGSGGSTYYADSVKGRFTISRDNAKNTVYLQMNSLKPEDTAVYYCAADLENYMSTMLDGYNYWGQGTQVTVSS | – | – | 9.9 | 3.5 |
| anti-PfCSS nanobody C1 (VHH) VHH: QVQLQESGGGLVQAGGSLRLSCAASGRSFSSYAMGWFSQAPGKEREFVAAISWNGGSTYYADSVKGRFTISRNNAKNTVYLQMNSLKPEDTAVYYCAATEPEIYISTMAEGYDYWGQGTQVTVSS | – | – | 6.8 | 0.99 |
| anti-PfCSS nanobody C10 (VHH) VHH: QVQLQESGGGLVQAGGSLRLSCVASGRTFSNDAMGWFRQAPGKEREFVAAATRNGLGTGYADSVKGRFTISRDNAKNTVYLQMNSLKPEDTAVYYCAAASDAYYSNQRAAYDYWGQGTQVTVSS | – | – | 12 | 1.5 |
| anti-PfCSS nanobody C9 (VHH) VHH: QVQLQESGGGLVQAGDSLRLSCAASGRTFSSYAMGWFRQAPGKEREFVAAIAWNGGSTYYQDSVKGRFTISRDNAKNTVYLQMNSLKPEDTAVYYCAADDSYMSTMIHEYDYWGQGTQVTVSS | – | – | 12 | 6.5 |
| anti-PfPTRAMP nanobody H8 (VHH) VHH: QVQLQESGGGLVQPGGSLRLSCAASGFTFSSYWMYWVRQAPGKGLEWVSAINTGGGSTAYADSVKGRFTISRDNAKNTLYLQMNSLKSDDTAVYYCVKARGSSWSDRVFDYWGQGTQVTVSS | – | 400 | 410 | – |
| anti-PfCSS nanobody D1 (VHH) VHH: QVQLQESGGGLVQAGGSLRLSCAASGRTFSSLAMGWFRQPPGKEREFVAAISYSSGSTYYADSVKGRFTISRDNAKNTVYLQMNSLKPEDTAVYYCAVTPPDTYISTMGHEYDYWGQGTQVTVSS | – | – | 9 | 2.6 |
| anti-PfCSS nanobody G5 (VHH) VHH: QVQLQESGGGLVQAGGSLRLSCVASGRTFSSYGMGWFRQAPGKEREFVSAISSDAASRHYANSVKGRFTISRDNAKNTVTLQMSSLTPEDTAVYYCAAVHAYYSNYDGHYDYWGQGTQVTVSS | – | – | 7 | 4.9 |
| anti-PfCSS nanobody B6 (VHH) VHH: QVQLQESGGGLVQAGGSLRLSCAASGRTFSRYAMGWFRQAPGKEREFVAAISWSGGSTTYADSVKGRFTISRDNAKNTVYLQMNSLKPEDTAVYYCAAGDFIIGNMASEYEYWGQGTQVTVSS | – | – | 2.5 | 0.66 |
| anti-PfCSS nanobody F7 (VHH) VHH: QVQLQESGGGSVQVGDSLSLSCVASGRTFSTYALGWFRQAPGKEREFVAAASANGKVAPVTGSLRDRFSISRDNAKNTMYLQMNNLKPEDTAVYYCAAATGSEVFISTSPNVYDIWGQGTQVTVSS | – | – | 9.9 | 5 |
| anti-PfCSS nanobody D9 (VHH) VHH: QVQLQESGGGLVQAGGSLTLSCAASGRTFSRSAMGWFRQAPGKGREFVAAISSGDTSTYYMDSVKGRFTISRDSSKNTVYLQMNNLRPEDTAVYYCAADPKSYITTMISEYDIWGQGTQVTVSS | – | – | 11 | 4.4 |
| anti-PfCSS nanobody B1 (VHH) VHH: QVQLQESGGGLVQYGGSLRLSCAASGRTFSSYSMGWFRQAPGKEREFVAAISWTGGNTYYLGSTEGRFTISRDNAKNTVFLQMNNLKPEDTAVYYCAAKGRGSSWPTYDYRGQGTQVTVSS | – | – | 5.6 | 4 |
| anti-PfCSS nanobody E12 (VHH) VHH: QVQLQESGGGLVQAGGSLRLSCVASTRTFGNYAMAWFRQAPGKEREFVTTISASGGNTGAAPSVKGRFAISRDNAKNTVYLQMNSLKPEDTAVYYCAAASAYYSNDPARYTYWGQGTQVTVSS | – | – | 16 | 12 |
| D2 nanobody (anti-PfCSS, inhibitory) (VHH) VHH: QVQLQESGGGLVQAGGSLRLSCAASGRTFSSYAMGWFRQAPGKEREFVAAISYSGSNTYDADSVKGRFAISRDNAKNTVYLQMNSLKPEDTAVYYCAAAGVYSGTYTDTEFDYWGQGTQVTVSS | – | – | – | 4.4 |
